Measurements from PMC4768256, “Using mutagenesis to explore conserved residues in the RNA-binding groove of influenza A virus nucleoprotein for antiviral drug development” (Scientific Reports, 2016).
Like-named read-outs stand apart in the source and are kept apart here.

Experiments:
[1] = biological target: NP WT (Influenza A virus A/TW/12/2001 (H1N1)) (UniProt Q07FI1); assay: SPR
[2] = biological target: NP WT (Influenza A virus A/TW/12/2001 (H1N1)) (UniProt Q07FI1); assay: SPR; remark: listed apart in the source

Chain of NP WT (Influenza A virus A/TW/12/2001 (H1N1)) (Q07FI1 whole entry): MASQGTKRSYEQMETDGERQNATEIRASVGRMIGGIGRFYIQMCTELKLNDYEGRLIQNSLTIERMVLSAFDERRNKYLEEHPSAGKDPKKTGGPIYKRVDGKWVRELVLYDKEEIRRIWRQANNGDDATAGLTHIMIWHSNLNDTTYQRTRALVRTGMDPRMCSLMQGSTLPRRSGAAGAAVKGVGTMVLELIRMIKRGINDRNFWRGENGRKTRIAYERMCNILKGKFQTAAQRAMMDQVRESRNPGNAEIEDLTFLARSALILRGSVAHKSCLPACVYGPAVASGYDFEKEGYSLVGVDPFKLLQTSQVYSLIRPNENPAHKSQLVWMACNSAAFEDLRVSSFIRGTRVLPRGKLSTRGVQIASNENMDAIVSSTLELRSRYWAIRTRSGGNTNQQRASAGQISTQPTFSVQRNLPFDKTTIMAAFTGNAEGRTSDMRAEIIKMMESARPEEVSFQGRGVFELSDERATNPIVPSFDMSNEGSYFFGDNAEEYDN

Sequence: UCCAAACUCCAAACUCCAAACUCCAAAC [(UCCAAAC)4 RNA]
- Kd [1]: 8.27 nM
- Kd [2]: 10.4 nM
